Results on one substance are retold here after patent US20250122267A1.

The target in the assay is serum TGFβ1 of the treated mice (mouse) (UniProt P04202). Kind of assay: cell-based or functional assay.
Sequence of UniProt P04202 (P04202 279-390 limits assumed): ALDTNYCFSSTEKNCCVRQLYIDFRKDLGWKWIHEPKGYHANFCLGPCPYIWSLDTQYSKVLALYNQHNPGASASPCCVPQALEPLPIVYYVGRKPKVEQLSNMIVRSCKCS

“sTGFbR2-Fc(igg2Ae), fusion of the mouse TGFbR2 extracellular domain with the mouse igg domain (Fc fusion)” came in with a serum TGFβ1 after administration of the AAV encoding the soluble receptor (FIG. 2, TGFb1 knockdown versus dosage) below 95%.
